As usually defined, the Kd is the equilibrium constant for the complex coming apart. A lower Kd goes with a tighter complex.

The target of the test is T1, GST-ZPSG-1 (UniProt Q07157 417-806).
T1 sequence: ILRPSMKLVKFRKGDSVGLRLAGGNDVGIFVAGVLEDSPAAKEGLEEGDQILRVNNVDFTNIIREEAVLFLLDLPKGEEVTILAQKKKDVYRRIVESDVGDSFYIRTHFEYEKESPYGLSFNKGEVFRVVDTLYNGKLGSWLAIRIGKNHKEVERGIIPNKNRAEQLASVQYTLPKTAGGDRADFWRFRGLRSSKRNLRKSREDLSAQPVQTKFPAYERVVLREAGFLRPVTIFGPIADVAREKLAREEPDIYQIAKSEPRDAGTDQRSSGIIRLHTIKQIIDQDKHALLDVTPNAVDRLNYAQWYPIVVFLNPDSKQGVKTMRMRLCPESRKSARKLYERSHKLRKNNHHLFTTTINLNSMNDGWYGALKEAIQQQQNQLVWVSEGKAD
Put plainly: supernatant depletion assay.

B1: GFP-tagged C-terminal ZO-1 fragment (GFP-ZO-1-1619-1748) (domain or fragment)
chain: SAVEEDEDEDGHTVVATARGIFNSNGGVLSSIETGVSIIIPQGAIPEGVEQEIYFKVCRDNSILPPLDKEKGETLLSPLVMCGPHGLKFLKPVELRLPHCDPKTWQNKCLPGDPNYLVGANCVSVLIDHF
In turn, B1 showed a Kd of 66 nM.

B2: HA-DbpA (natural protein)
chain: not shown
For B2, the dissociation constant (Kd) came to 100 nM.

These data come from publication doi:10.1101/156513 (bioRxiv, 2017).
